Here are results for one substance from patent US5871739.

The assay addresses β-crystallin (containing about 10% βA3 -crystallin). The experiment in a line: ELISA of mouse sera in the same manner as in Experimental Example 2; anti-crystallin antibody titer, control group. The following applies: scale: dilution ratio. On the technique in general: In an ELISA, binding on a coated surface is turned into a signal by an enzyme label.

For the substance “sera of control mice given PBS (Experimental Example 5) (polyclonal serum or antibody)”, the antibody titer stood at 500.
